Experimental data reported in paper PMC2577326.

Biological target: PspGI-D138A selenomethionine variant (Pyrococcus GI-H)
Experiment: crystal structure

stoichiometry N: 2
Substance: PspGI-D138A selenomethionine variant (enzyme)
